In ChEMBL document CHEMBL1145505, “Bisphosphonates target multiple sites in both cis- and trans-prenyltransferases” (Proc Natl Acad Sci U S A, 2007) one finds Km data, which are given here for two proteins.

Substrate in data set [1]: CC(C)=CCC/C(C)=C/CC/C(C)=C/COP(=O)(O)OP(=O)(O)O
Nature of the data set: Activity at human GGPPS.

Substrate in data set [2]: CC(C)=CCC/C(C)=C/CC/C(C)=C/COP(=O)(O)OP(=O)(O)O
Nature of the data set: Activity at Saccharomyces cerevisiae GGPPS.

B1: Geranylgeranyl pyrophosphate synthase (Homo sapiens), O95749 (protein)
chain: MEKTQETVQRILLEPYKYLLQLPGKQVRTKLSQAFNHWLKVPEDKLQIIIEVTEMLHNASLLIDDIEDNSKLRRGFPVAHSIYGIPSVINSANYVYFLGLEKVLTLDHPDAVKLFTRQLLELHQGQGLDIYWRDNYTCPTEEEYKAMVLQKTGGLFGLAVGLMQLFSDYKEDLKPLLNTLGLFFQIRDDYANLHSKEYSENKSFCEDLTEGKFSFPTIHAIWSRPESTQVQNILRQRTENIDIKKYCVHYLEDVGSFEYTRNTLKELEAKAYKQIDARGGNPELVALVKHLSKMFKEENE
The Km is the concentration of substrate that gives half-maximal velocity. Regarding B1, in data set [1], the Km stood at 0.71 µM.

B2: Geranylgeranyl pyrophosphate synthase BTS1 (Saccharomyces cerevisiae S288c), Q12051 (protein)
chain: MEAKIDELINNDPVWSSQNESLISKPYNHILLKPGKNFRLNLIVQINRVMNLPKDQLAIVSQIVELLHNSSLLIDDIEDNAPLRRGQTTSHLIFGVPSTINTANYMYFRAMQLVSQLTTKEPLYHNLITIFNEELINLHRGQGLDIYWRDFLPEIIPTQEMYLNMVMNKTGGLFRLTLRLMEALSPSSHHGHSLVPFINLLGIIYQIRDDYLNLKDFQMSSEKGFAEDITEGKLSFPIVHALNFTKTKGQTEQHNEILRILLLRTSDKDIKLKLIQILEFDTNSLAYTKNFINQLVNMIKNDNENKYLPDLASHSDTATNLHDELLYIIDHLSEL
Take B2: the Michaelis constant (Km) in data set [2] amounted to 3.2 µM.
